Results from patent US20200270339A1 (CEPHALON, published 2020).

Molecular target: human IL-15 complexed with the IL-15 Receptor-alpha (human, UniProt P40933 49-162)
Assay: cell-based or functional assay

human IL-15 complexed with the IL-15 Receptor-alpha, sequence (P40933 49-162 limits assumed, chain 1 of 2): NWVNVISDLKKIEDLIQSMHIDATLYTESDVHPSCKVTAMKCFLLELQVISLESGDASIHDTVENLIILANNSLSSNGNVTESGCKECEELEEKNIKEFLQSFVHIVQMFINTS
human IL-15 complexed with the IL-15 Receptor-alpha, sequence (chain, as listed by the source limits assumed, chain 2 of 2): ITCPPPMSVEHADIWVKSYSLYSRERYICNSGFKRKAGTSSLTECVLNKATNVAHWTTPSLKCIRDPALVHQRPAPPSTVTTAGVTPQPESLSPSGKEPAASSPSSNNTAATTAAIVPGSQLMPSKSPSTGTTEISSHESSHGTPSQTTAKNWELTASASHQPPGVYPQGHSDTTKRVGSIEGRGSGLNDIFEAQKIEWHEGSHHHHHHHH

| Binder | IC 50 (NK-92) in pM [pM] |
| --- | --- |
| Antibody 63 (antibody, V domains shown) VH: QVQLQESGPGLVKPSGTLSLTCAVSGGSISSSNWWSWVRQPPGKGLEWIGEIYHYGYTNYNPSLKSRVTISVDKSKNQFSLKLSSVTAADTAVYYCAREGIGWPSFDYWGQGTLVTVSS VL: SSELTQDPAASVALGQTVRITCQGDTLRNYYASWYQQKPGQAPILVIYGKNNRPSGIPDRFSGSSSGNTASLTITGAQAEDEADYYCNSRDSSGKNLVFGGGTKLTVL | 4.21 |
| Antibody 64 (antibody, V domains shown) VH: QVQLQESGPGLVKPSGTLSLTCAVSGGSISSSNWWSWVRQPPGKGLEWIGEIYHYGYTNYNPSLKSRVTISVDKSKNQFSLKLSSVTAADTAVYYCAREGIGWPSFDYWGQGTLVTVSS VL: SSELTQDPAASVALGQTVRITCQGDTLRSYYASWYQQKPGQAPILVIYGKNNRPSGIPDRFSGSSSGNTASLTITGAQAEDEADYYCNSRDSSGKNLVFGGGTKLTVLG | 13.6 |
| Antibody 65 (antibody, V domains shown) VH: QVQLQESGPGLVKPSGTLSLTCAVSGGSISSSNWWSWVRQPPGKGLEWIGEIYHYGYTNYNPSLKSRVTISVDKSKNQFSLKLSSVTAADTAVYYCAREGIGWPSFDYWGQGTLVTVSS VL: SSELTQDPAASVALGQTVRITCQGDTLRNYYASWYQQKPGQAPILVIYGKNNRPSGIPDRFSGSSSGNTASLTITGAQAEDEADYYCNSRESSGKNLVFGGGTKLTVL | 42.5 |
| Antibody 66 (antibody, V domains shown) VH: QVQLQESGPGLVKPSGTLSLTCAVSGGSISSSNWWSWVRQPPGKGLEWIGEIYHYGYTNYNPSLKSRVTISVDKSKNQFSLKLSSVTAADTAVYYCAREGIGWPSFDYWGQGTLVTVSS VL: SSELTQDPAASVALGQTVRITCQGDTLRNYYASWYQQKPGQAPILVIYGKNNRPSGIPDRFSGSSSGNTASLTITGAQAEDEADYYCNSRDLSGKNLVFGGGTKLTVLG | 6.04 |
| Antibody 67 (antibody, V domains shown) VH: QVQLQESGPGLVKPSGTLSLTCAVSGGSISSSNWWSWVRQPPGKGLEWIGEIYHYGYTNYNPSLKSRVTISVDKSKNQFSLKLSSVTAADTAVYYCAREGIGWPSFDYWGQGTLVTVSS VL: SSELTQDPAASVALGQTVRITCQGDTLRNYYASWYQQKPGQAPILVIYGKNNRPSGIPDRFSGSSSGNTASLTITGAQAEDEADYYCNSRDESGKNLVFGGGTKLTVL | 7.69 |
| Antibody 68 (antibody, V domains shown) VH: QVQLQESGPGLVKPSGTLSLTCAVSGGSISSSNWWSWVRQPPGKGLEWIGEIYHYGYTNYNPSLKSRVTISVDKSKNQFSLKLSSVTAADTAVYYCAREGIGWPSFDYWGQGTLVTVSS VL: SSELTQDPAASVALGQTVRITCQGDTLRNYYASWYQQKPGQAPILVIYGKNNRPSGIPDRFSGSSSGNTASLTITGAQAEDEADYYCNSRDFSGKNLVFGGGTKLTVLG | 5.34 |
| Antibody 69 (antibody, V domains shown) VH: QVQLQESGPGLVKPSGTLSLTCAVSGGSISSSNWWSWVRQPPGKGLEWIGEIYHYGYTNYNPSLKSRVTISVDKSKNQFSLKLSSVTAADTAVYYCAREGIGWPSFDYWGQGTLVTVSS VL: SSELTQDPAASVALGQTVRITCQGDTLRSYYASWYQQKPGQAPILVIYGKNNRPSGIPDRFSGSSSGNTASLTITGAQAEDEADYYCNSRESSGKNLVFGGGTKLTVL | 162 |
| Antibody 71 (antibody, V domains shown) VH: QVQLQESGPGLVKPSGTLSLTCAVSGGSISSSNWWSWVRQPPGKGLEWIGEIYHYGYTNYNPSLKSRVTISVDKSKNQFSLKLSSVTAADTAVYYCAREGIGWPSFDYWGQGTLVTVSS VL: SSELTQDPAASVALGQTVRITCQGDTLRSYYASWYQQKPGQAPILVIYGKNNRPSGIPDRFSGSSSGNTASLTITGAQAEDEADYYCNSRDESGKNLVFGGGTKLTVL | 26.4 |
| Antibody 72 (antibody, V domains shown) VH: QVQLQESGPGLVKPSGTLSLTCAVSGGSISSSNWWSWVRQPPGKGLEWIGEIYHYGYTNYNPSLKSRVTISVDKSKNQFSLKLSSVTAADTAVYYCAREGIGWPSFDYWGQGTLVTVSS VL: SSELTQDPAASVALGQTVRITCQGDTLRSYYASWYQQKPGQAPILVIYGKNNRPSGIPDRFSGSSSGNTASLTITGAQAEDEADYYCNSRDFSGKNLVFGGGTKLTVL | 20.9 |
| Antibody 73 (antibody, V domains shown) VH: QVQLQESGPGLVKPSGTLSLTCAVSGGSISSSNWWSWVRQPPGKGLEWIGEIYHYGYTNYNPSLKSRVTISVDKSKNQFSLKLISVTAADTAVYYCAREGIGWPSFDYWGQGTLVTVSS VL: SSELTQDPAASVALGQTVRITCQGDTLRSYYASWYQQKPGQAPILVIYGKNNRPSGIPDRFSGSSSGNTASLTITGAQAEDEADYYCNSRDSSGKNLVFGGGTKLTVL | 11.8 |
| Antibody 74 (antibody, V domains shown) VH: QVQLQESGPGLVKPSGTLSLTCAVSGGSISSSNWWSWVRQPPGKGLEWIGEIYHYGYTNYNPSLKSRVTISVDKSKNQFSLKLISVTAADTAVYYCAREGIGWPSFDYWGQGTLVTVSS VL: SSELTQDPAASVALGQTVRITCQGDTLRNYYASWYQQKPGQAPILVIYGKNNRPSGIPDRFSGSSSGNTASLTITGAQAEDEADYYCNSRESSGKNLVFGGGTKLTVL | 33.9 |
| Antibody 75 (antibody, V domains shown) VH: QVQLQESGPGLVKPSGTLSLTCAVSGGSISSSNWWSWVRQPPGKGLEWIGEIYHYGYTNYNPSLKSRVTISVDKSKNQFSLKLISVTAADTAVYYCAREGIGWPSFDYWGQGTLVTVSS VL: SSELTQDPAASVALGQTVRITCQGDTLRNYYASWYQQKPGQAPILVIYGKNNRPSGIPDRFSGSSSGNTASLTITGAQAEDEADYYCNSRDLSGKNLVFGGGTKLTVL | 3.14 |
| Antibody 76 (antibody, V domains shown) VH: QVQLQESGPGLVKPSGTLSLTCAVSGGSISSSNWWSWVRQPPGKGLEWIGEIYHYGYTNYNPSLKSRVTISVDKSKNQFSLKLISVTAADTAVYYCAREGIGWPSFDYWGQGTLVTVSS VL: SSELTQDPAASVALGQTVRITCQGDTLRNYYASWYQQKPGQAPILVIYGKNNRPSGIPDRFSGSSSGNTASLTITGAQAEDEADYYCNSRDESGKNLVFGGGTKLTVL | 7.69 |
| Antibody 77 (antibody, V domains shown) VH: QVQLQESGPGLVKPSGTLSLTCAVSGGSISSSNWWSWVRQPPGKGLEWIGEIYHYGYTNYNPSLKSRVTISVDKSKNQFSLKLISVTAADTAVYYCAREGIGWPSFDYWGQGTLVTVSS VL: SSELTQDPAASVALGQTVRITCQGDTLRNYYASWYQQKPGQAPILVIYGKNNRPSGIPDRFSGSSSGNTASLTITGAQAEDEADYYCNSRDFSGKNLVFGGGTKLTVL | 5.69 |
| Antibody 78 (antibody, V domains shown) VH: QVQLQESGPGLVKPSGTLSLTCAVSGGSISSSNWWSWVRQPPGKGLEWIGEIYHYGYTNYNPSLKSRVTISVDKSKNQFSLKLISVTAADTAVYYCAREGIGWPSFDYWGQGTLVTVSS VL: SSELTQDPAASVALGQTVRITCQGDTLRSYYASWYQQKPGQAPILVIYGKNNRPSGIPDRFSGSSSGNTASLTITGAQAEDEADYYCNSRESSGKNLVFGGGTKLTVL | 168 |
| Antibody 79 (antibody, V domains shown) VH: QVQLQESGPGLVKPSGTLSLTCAVSGGSISSSNWWSWVRQPPGKGLEWIGEIYHYGYTNYNPSLKSRVTISVDKSKNQFSLKLISVTAADTAVYYCAREGIGWPSFDYWGQGTLVTVSS VL: SSELTQDPAASVALGQTVRITCQGDTLRSYYASWYQQKPGQAPILVIYGKNNRPSGIPDRFSGSSSGNTASLTITGAQAEDEADYYCNSRDLSGKNLVFGGGTKLTVL | 12.4 |
| Antibody 80 (antibody, V domains shown) VH: QVQLQESGPGLVKPSGTLSLTCAVSGGSISSSNWWSWVRQPPGKGLEWIGEIYHYGYTNYNPSLKSRVTISVDKSKNQFSLKLISVTAADTAVYYCAREGIGWPSFDYWGQGTLVTVSS VL: SSELTQDPAASVALGQTVRITCQGDTLRSYYASWYQQKPGQAPILVIYGKNNRPSGIPDRFSGSSSGNTASLTITGAQAEDEADYYCNSRDESGKNLVFGGGTKLTVL | 22.8 |
| Antibody 81 (antibody, V domains shown) VH: QVQLQESGPGLVKPSGTLSLTCAVSGGSISSSNWWSWVRQPPGKGLEWIGEIYHYGYTNYNPSLKSRVTISVDKSKNQFSLKLISVTAADTAVYYCAREGIGWPSFDYWGQGTLVTVSS VL: SSELTQDPAASVALGQTVRITCQGDTLRSYYASWYQQKPGQAPILVIYGKNNRPSGIPDRFSGSSSGNTASLTITGAQAEDEADYYCNSRDFSGKNLVFGGGTKLTVL | 17.3 |
